This experiment deals with human ferritin heavy chain (FTH1) (human, UniProt P02794). Kind of experiment: ELISA. (In general: ELISA stands for enzyme-linked immunosorbent assay.)
Chain of human ferritin heavy chain (FTH1) (P02794 whole entry): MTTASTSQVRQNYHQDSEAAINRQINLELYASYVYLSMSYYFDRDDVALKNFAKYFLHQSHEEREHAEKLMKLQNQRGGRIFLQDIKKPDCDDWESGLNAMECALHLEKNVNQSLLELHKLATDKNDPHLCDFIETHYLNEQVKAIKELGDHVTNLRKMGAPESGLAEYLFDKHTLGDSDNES

DSFQVIKNSPLSEWLI [GST-Peptide WT (NCOA4 484-499)] showed an EC50 of 288 nM. That is a sub-micromolar value.

In general, EC50 refers to the midpoint of the concentration-response curve. The low end stands for greater potency, the high end for weaker potency.

The values above are taken from article PMC11452399 (Nature Communications, 2024).
